The target of this assay is T1, Human TIM-3 Human Fc tagged protein (human, fluorescently labeled with HiLyte Fluor 555 (sites not given)).
T1 construct: Bought construct; also called TIM-3 protein tagged with human Fc; ACROBiosystems catalog no: TM3-H5258
The assay is described as follows: capture slide probed with labeled TIM-3-Fc.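 Also: IgG from single CD138-enriched plasma cells, isolated from lymphocytes, immobilized on a derivatized glass slide.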

B1: SCT-Fa095 (antibody, V domains shown)
VH: QVQLKESGPGLVAPSQSLSITCTVSGFSLTSSVISWVRQPPGKGLEWLGIIWAGGDTNYNSALKSRLSISKDNSKSQVFLKMNSLQTDDTARYYCARNLNAMDYWGQGTSVTVSS
VL: DVLMTQTPLSLTVSLGDQASISCRSSQSIVHSNGNTYLEWFLQKPGQSPKLLIYKVSNRFSGVPDRFSGSGSGTDFTLKISRVEAEDLGVYYCFQGSHVPWTFGGGTKLEIK
notes: murine IgG
As to B1, the binding result is on record as “binds”.

B2: SCT-Fa094 (antibody, V domains shown)
VH: QVLLQQPGAELVRPGTSVKLSCKASGYTFTNFWMHWVKQRPGQGLEWIGVIDPSDISTHYNQNFKGKAILTVDTSSSSAYMQLSSLTSEDSAVYYCARNDYDGGYFDYWGQGTTLTVSS
VL: DVVMTQTPLSLPVSLGDQASISCRSSQSLVHGNGNTYLHWYLQKPGQSPKLLIYTVSNRFSGVPDRFSGSGSGTDFTLKISRVEAEDLGVYFCSQTIHAPWTFGGGTKLEIK
notes: murine IgG
As to B2, the binding result was “binds”.

B3: SCT-Fa091 (antibody, V domains shown)
VH: QIQLVQSGPEMKKPGETVKISCKASGYTFRTYGMSWVKQAPGKGLEWMGWINTYSGEPTYADDFKGRFAFSLETSANTAYLQINNLKNEDTATFFCARAQHYFDWWGQGTTLTVSS
VL: DIKMTQSPSSMYASLGERVTITCKASQDIDRYLNWFQQKPGKSPKTLIYRATRLVDGVPSRFSGSGSGQDYSLTISSLEYEDMGIYYCLQYDEFPYTFGGGTKLEIK
notes: murine IgG
On to B3, for which the binding result is listed as “binds”.

For the origin of these results see patent publication US20230279105A1 (SINGLE CELL TECHNOLOGY, published 2023).
